Measured values published in patent publication US20240261333A1, “NOVEL TARGETS FOR ENHANCING ANTI-TUMOR IMMUNITY” (THE BROAD INSTITUTE, INC., priority 2021, published 2024).

Key:
MAGED2 (human) = MAGED2 (human) (UniProt Q9UNF1); experiment: IgG control IP from lysate of cells overexpressing C-FLAG B3GNT2, then mass spectrometry
TIMP3 (human) = TIMP3 (human) (UniProt P35625); experiment: as above
CPSF6 (human) = CPSF6 (human) (UniProt Q16630); experiment: as above
SUPT16H (human) = SUPT16H (human) (UniProt Q9Y5B9); experiment: as above
SUPT16H (human), sequence (Q9Y5B9 2-1047 limits assumed): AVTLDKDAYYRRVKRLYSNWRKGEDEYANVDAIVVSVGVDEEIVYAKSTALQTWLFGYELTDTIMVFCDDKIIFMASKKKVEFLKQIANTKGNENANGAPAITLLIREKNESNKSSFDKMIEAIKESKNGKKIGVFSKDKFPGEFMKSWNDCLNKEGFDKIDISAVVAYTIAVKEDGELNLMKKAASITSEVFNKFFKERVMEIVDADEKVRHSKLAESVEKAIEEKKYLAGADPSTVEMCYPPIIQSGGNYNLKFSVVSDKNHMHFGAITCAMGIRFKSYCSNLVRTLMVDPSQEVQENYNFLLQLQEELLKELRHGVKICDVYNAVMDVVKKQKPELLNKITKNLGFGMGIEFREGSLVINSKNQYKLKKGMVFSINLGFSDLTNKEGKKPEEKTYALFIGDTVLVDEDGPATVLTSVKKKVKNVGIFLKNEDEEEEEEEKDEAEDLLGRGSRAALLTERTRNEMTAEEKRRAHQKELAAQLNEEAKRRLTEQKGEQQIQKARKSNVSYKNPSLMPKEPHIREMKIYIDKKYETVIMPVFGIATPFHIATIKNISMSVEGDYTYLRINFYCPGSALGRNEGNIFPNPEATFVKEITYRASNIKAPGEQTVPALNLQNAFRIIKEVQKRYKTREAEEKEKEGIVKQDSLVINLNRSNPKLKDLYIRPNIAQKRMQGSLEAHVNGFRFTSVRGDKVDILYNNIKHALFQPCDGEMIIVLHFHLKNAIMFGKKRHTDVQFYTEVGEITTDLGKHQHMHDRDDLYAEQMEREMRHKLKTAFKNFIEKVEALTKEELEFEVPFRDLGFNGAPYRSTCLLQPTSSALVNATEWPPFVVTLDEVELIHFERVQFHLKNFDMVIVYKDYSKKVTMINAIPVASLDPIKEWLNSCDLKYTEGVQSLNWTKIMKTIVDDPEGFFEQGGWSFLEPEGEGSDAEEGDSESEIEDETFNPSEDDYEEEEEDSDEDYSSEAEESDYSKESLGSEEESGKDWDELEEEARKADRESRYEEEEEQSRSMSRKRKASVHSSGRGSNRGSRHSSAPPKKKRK

VIM (human) = VIM (human) (UniProt P08670); experiment: as above
VIM (human), sequence (P08670 2-466 limits assumed): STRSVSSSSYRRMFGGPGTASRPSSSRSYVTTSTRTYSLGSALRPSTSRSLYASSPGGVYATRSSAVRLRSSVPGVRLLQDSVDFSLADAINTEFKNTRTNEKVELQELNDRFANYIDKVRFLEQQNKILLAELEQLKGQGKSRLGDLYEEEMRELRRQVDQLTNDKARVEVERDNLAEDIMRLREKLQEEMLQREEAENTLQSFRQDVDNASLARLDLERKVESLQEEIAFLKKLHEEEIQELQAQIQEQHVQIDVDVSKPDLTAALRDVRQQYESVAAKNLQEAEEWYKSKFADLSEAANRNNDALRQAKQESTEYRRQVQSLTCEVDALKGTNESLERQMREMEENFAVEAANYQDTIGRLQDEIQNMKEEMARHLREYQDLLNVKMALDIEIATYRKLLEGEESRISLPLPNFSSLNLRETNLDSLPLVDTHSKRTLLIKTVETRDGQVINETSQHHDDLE

CAPRIN1 (human) = CAPRIN1 (human) (UniProt Q14444); experiment: as above
CASC3 (human) = CASC3 (human) (UniProt O15234); experiment: as above
PABPC1 (human) = PABPC1 (human) (UniProt P11940); experiment: as above
CKAP4 (human) = CKAP4 (human) (UniProt Q07065); experiment: co-IP/MS, anti-FLAG IP of N-FLAG B3GNT2 cell lysate
PCBP1 (human) = PCBP1 (human) (UniProt Q15365); experiment: as above
SLC25A4 (human) = SLC25A4 (human) (UniProt P12235); experiment: as above
CAPZA1 (human) = CAPZA1 (human) (UniProt P52907); experiment: as above
RPL13A (human) = RPL13A (human) (UniProt P40429); experiment: as above
LRP1 (human) = LRP1 (human) (UniProt Q07954); experiment: as above
CALU (human) = CALU (human) (UniProt O43852); experiment: as above
CALU (human), sequence (O43852 20-315 limits assumed): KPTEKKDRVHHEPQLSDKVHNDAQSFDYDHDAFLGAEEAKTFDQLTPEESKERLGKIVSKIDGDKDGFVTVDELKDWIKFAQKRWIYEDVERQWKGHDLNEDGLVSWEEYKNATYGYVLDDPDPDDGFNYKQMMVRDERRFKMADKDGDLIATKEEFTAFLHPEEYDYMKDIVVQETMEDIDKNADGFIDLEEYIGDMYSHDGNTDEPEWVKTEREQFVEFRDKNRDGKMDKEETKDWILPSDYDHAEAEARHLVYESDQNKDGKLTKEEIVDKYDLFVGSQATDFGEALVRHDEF

PDIA6 (human) = PDIA6 (human) (UniProt Q15084); experiment: as above
PDIA6 (human), sequence (Q15084 20-440 limits assumed): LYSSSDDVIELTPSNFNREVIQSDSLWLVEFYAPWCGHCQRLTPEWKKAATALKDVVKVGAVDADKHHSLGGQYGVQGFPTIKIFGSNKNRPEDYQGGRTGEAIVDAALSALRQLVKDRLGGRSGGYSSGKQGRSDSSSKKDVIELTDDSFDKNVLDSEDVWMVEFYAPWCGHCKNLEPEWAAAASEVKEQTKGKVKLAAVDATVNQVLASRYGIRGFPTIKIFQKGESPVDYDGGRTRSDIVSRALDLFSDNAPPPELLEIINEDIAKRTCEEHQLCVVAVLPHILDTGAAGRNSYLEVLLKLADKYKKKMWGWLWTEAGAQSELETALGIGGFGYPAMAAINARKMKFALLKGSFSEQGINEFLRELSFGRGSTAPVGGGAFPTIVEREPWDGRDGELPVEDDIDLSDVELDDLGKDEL

DNAJA1 (human) = DNAJA1 (human) (UniProt P31689); experiment: as above
SQSTM1 (human) = SQSTM1 (human) (UniProt Q13501); experiment: as above
TGM3 (human) = TGM3 (human) (UniProt Q08188); experiment: as above
RPL23A (human) = RPL23A (human) (UniProt P62750); experiment: as above
ATP1A1 (human) = ATP1A1 (human) (UniProt P05023); experiment: as above
CANX (human) = CANX (human) (UniProt P27824); experiment: as above
CANX (human), sequence (P27824 21-592 limits assumed): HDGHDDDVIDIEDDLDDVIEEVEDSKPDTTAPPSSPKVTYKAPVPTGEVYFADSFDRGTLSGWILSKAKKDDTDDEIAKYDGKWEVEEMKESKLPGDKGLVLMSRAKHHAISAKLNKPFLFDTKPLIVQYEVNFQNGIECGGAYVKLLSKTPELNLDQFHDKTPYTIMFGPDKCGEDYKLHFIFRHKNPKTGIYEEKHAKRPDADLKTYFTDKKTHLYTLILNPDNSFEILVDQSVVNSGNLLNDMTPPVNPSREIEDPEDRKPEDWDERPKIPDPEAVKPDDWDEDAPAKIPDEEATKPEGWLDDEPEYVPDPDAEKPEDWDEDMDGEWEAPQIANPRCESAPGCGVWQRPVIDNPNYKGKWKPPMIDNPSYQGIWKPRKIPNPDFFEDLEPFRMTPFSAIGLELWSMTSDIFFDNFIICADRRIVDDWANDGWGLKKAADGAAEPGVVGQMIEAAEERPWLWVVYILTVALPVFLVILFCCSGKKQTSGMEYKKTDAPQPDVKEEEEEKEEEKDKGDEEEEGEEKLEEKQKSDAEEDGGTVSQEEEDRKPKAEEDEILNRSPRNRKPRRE

FAM3C (human) = FAM3C (human) (UniProt Q92520); experiment: as above
FAM3C (human), sequence (Q92520 25-227 limits assumed): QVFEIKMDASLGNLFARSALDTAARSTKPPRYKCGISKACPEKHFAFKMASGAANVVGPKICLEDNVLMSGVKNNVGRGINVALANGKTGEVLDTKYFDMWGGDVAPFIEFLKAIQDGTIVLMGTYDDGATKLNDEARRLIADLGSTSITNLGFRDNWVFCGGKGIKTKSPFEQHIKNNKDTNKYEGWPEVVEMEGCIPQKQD

UQCRC2 (human) = UQCRC2 (human) (UniProt P22695); experiment: as above
UQCRC2 (human), sequence (P22695 15-453 limits assumed): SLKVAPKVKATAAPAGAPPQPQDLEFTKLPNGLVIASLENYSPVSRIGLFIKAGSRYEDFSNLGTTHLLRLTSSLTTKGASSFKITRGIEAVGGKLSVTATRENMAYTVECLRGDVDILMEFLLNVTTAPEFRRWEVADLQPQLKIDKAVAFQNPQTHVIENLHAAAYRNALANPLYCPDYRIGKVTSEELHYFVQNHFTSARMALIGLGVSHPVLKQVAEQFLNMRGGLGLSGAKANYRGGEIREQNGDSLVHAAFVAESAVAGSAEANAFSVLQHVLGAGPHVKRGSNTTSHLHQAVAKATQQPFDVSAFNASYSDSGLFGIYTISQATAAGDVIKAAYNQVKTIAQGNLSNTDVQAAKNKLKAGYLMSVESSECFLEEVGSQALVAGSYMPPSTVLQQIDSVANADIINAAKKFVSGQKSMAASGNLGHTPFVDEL

TUBB (human) = TUBB (human) (UniProt P07437); experiment: as above
ERLIN1 (human) = ERLIN1 (human) (UniProt O75477); experiment: as above
ERLIN1 (human), sequence (O75477 whole entry): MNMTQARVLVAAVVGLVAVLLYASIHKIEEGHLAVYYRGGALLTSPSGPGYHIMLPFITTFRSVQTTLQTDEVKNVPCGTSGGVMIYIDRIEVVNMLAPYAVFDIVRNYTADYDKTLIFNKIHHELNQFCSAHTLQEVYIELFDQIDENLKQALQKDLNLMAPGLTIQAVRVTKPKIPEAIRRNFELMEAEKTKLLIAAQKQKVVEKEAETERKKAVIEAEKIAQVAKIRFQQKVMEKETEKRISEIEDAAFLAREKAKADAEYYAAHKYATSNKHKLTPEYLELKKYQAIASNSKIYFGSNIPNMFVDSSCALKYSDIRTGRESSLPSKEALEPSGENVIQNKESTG

RPL12 (human) = RPL12 (human) (UniProt P30050); experiment: as above
RCN2 (human) = RCN2 (human) (UniProt Q14257); experiment: as above
CASP14 (human) = CASP14 (human) (UniProt P31944); experiment: as above
CASP14 (human), sequence (P31944 whole entry): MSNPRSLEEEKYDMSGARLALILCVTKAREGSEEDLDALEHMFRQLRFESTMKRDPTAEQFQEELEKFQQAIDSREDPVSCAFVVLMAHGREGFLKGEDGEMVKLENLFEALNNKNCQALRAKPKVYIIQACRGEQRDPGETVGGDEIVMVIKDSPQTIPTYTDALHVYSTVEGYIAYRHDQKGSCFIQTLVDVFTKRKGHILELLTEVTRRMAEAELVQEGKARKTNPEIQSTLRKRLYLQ

IPO4 (human) = IPO4 (human) (UniProt Q8TEX9); experiment: as above
PIP (human) = PIP (human) (UniProt P12273); experiment: as above
PIP (human), sequence (P12273 29-146 limits assumed): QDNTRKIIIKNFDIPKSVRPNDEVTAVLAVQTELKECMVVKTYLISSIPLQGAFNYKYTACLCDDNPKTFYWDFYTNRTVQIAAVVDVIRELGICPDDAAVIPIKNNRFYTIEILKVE

GCN1 (human) = GCN1 (human) (UniProt Q92616); experiment: as above
RPLPO (human) = RPLPO (human) (UniProt P05388); experiment: as above
ERLIN2 (human) = ERLIN2 (human) (UniProt O94905); experiment: as above
RPS12 (human) = RPS12 (human) (UniProt P25398); experiment: as above
HSD17B12 (human) = HSD17B12 (human) (UniProt Q53GQ0); experiment: as above
CAPZB (human) = CAPZB (human) (UniProt P47756); experiment: as above
RPS7 (human) = RPS7 (human) (UniProt P62081); experiment: as above

TIMP3 (human), sequence (P35625 24-211 limits assumed): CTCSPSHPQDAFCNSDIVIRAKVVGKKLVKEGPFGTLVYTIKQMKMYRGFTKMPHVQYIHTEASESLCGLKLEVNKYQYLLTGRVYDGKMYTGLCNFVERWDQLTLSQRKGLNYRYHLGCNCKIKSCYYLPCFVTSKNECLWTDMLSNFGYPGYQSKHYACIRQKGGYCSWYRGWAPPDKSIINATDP
MAGED2 (human), sequence (Q9UNF1 2-606 limits assumed): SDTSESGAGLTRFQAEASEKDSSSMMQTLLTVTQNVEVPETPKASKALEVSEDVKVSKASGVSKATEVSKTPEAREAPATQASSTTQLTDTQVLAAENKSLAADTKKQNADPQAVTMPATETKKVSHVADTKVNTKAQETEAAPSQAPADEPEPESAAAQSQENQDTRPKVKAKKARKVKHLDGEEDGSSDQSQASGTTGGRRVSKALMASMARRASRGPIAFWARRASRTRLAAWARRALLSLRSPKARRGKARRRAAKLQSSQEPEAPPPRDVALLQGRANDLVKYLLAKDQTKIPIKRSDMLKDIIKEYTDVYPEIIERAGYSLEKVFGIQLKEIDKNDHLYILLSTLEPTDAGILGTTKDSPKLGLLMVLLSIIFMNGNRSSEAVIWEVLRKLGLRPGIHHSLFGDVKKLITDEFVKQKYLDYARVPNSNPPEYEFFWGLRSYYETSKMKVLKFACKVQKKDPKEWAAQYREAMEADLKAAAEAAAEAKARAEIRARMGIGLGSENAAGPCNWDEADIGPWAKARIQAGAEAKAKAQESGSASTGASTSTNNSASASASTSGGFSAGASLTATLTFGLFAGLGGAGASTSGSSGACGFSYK

“IgG control (Millipore Sigma 12-371) (antibody)” was tested. Which co-IP mass spectrometry count (C-term IgG) (MAGED2 (human)) did it give?
Its co-IP mass spectrometry count (C-term IgG) is 0.

And the co-IP mass spectrometry count (C-term IgG) (TIMP3 (human))?
The co-IP mass spectrometry count (C-term IgG) was 0.

What about the co-IP mass spectrometry count (C-term IgG) (CPSF6 (human)) of the same substance?
The co-IP mass spectrometry count (C-term IgG) was 33.

And the co-IP mass spectrometry count (C-term IgG) (SUPT16H (human))?
Its co-IP mass spectrometry count (C-term IgG) is 0.

What about the co-IP mass spectrometry count (C-term IgG) (VIM (human)) of the same substance?
The co-IP mass spectrometry count (C-term IgG) was 337.

And the co-IP mass spectrometry count (C-term IgG) (CAPRIN1 (human))?
Its co-IP mass spectrometry count (C-term IgG) is 6.

And the co-IP mass spectrometry count (C-term IgG) (CASC3 (human))?
Its co-IP mass spectrometry count (C-term IgG) is 0.

And the co-IP mass spectrometry count (C-term IgG) (PABPC1 (human))?
Its co-IP mass spectrometry count (C-term IgG) is 30.

Which co-IP mass spectrometry count (CKAP4 (human)) does the source give for “N-terminal FLAG tagged B3GNT2 (from UniProt Q9NY97 1-397) (enzyme)” here?
Its co-IP mass spectrometry count is 2.

And the co-IP mass spectrometry count (PCBP1 (human))?
The co-IP mass spectrometry count was 4.

What about the co-IP mass spectrometry count (SLC25A4 (human)) of the same substance?
Its co-IP mass spectrometry count is 9.

What about the co-IP mass spectrometry count (CAPZA1 (human)) of the same substance?
Its co-IP mass spectrometry count is 2.

And the co-IP mass spectrometry count (RPL13A (human))?
Its co-IP mass spectrometry count is 4.

What about the co-IP mass spectrometry count (LRP1 (human)) of the same substance?
Its co-IP mass spectrometry count is 2.

What about the co-IP mass spectrometry count (CALU (human)) of the same substance?
The co-IP mass spectrometry count was 10.

And the co-IP mass spectrometry count (PDIA6 (human))?
Its co-IP mass spectrometry count is 5.

And the co-IP mass spectrometry count (DNAJA1 (human))?
The co-IP mass spectrometry count was 6.

And the co-IP mass spectrometry count (SQSTM1 (human))?
The co-IP mass spectrometry count was 3.

What about the co-IP mass spectrometry count (TGM3 (human)) of the same substance?
The co-IP mass spectrometry count was 9.

What about the co-IP mass spectrometry count (RPL23A (human)) of the same substance?
Its co-IP mass spectrometry count is 6.

And the co-IP mass spectrometry count (ATP1A1 (human))?
The co-IP mass spectrometry count was 11.

What about the co-IP mass spectrometry count (CANX (human)) of the same substance?
The co-IP mass spectrometry count was 6.

What about the co-IP mass spectrometry count (FAM3C (human)) of the same substance?
Its co-IP mass spectrometry count is 2.

What about the co-IP mass spectrometry count (UQCRC2 (human)) of the same substance?
Its co-IP mass spectrometry count is 13.

And the co-IP mass spectrometry count (TUBB (human))?
The co-IP mass spectrometry count was 164.

And the co-IP mass spectrometry count (ERLIN1 (human))?
Its co-IP mass spectrometry count is 11.

And the co-IP mass spectrometry count (RPL12 (human))?
Its co-IP mass spectrometry count is 9.

And the co-IP mass spectrometry count (RCN2 (human))?
The co-IP mass spectrometry count was 7.

What about the co-IP mass spectrometry count (CASP14 (human)) of the same substance?
Its co-IP mass spectrometry count is 8.

And the co-IP mass spectrometry count (IPO4 (human))?
The co-IP mass spectrometry count was 3.

And the co-IP mass spectrometry count (PIP (human))?
The co-IP mass spectrometry count was 4.

And the co-IP mass spectrometry count (GCN1 (human))?
The co-IP mass spectrometry count was 14.

And the co-IP mass spectrometry count (RPLPO (human))?
Its co-IP mass spectrometry count is 6.

And the co-IP mass spectrometry count (ERLIN2 (human))?
Its co-IP mass spectrometry count is 8.

And the co-IP mass spectrometry count (RPS12 (human))?
Its co-IP mass spectrometry count is 3.

What about the co-IP mass spectrometry count (HSD17B12 (human)) of the same substance?
Its co-IP mass spectrometry count is 10.

And the co-IP mass spectrometry count (CAPZB (human))?
The co-IP mass spectrometry count was 2.

And the co-IP mass spectrometry count (RPS7 (human))?
The co-IP mass spectrometry count was 8.
